Experimental data taken from publication PMC3578133 (Cancer research, 2012).

B1: human full length N-terminal GST-tagged HDAC4 (natural protein, UniProt P56524 1-1084, looked up)
chain: MSSQSHPDGLSGRDQPVELLNPARVNHMPSTVDVATALPLQVAPSAVPMDLRLDHQFSLPVAEPALREQQLQQELLALKQKQQIQRQILIAEFQRQHEQLSRQHEAQLHEHIKQQQEMLAMKHQQELLEHQRKLERHRQEQELEKQHREQKLQQLKNKEKGKESAVASTEVKMKLQEFVLNKKKALAHRNLNHCISSDPRYWYGKTQHSSLDQSSPPQSGVSTSYNHPVLGMYDAKDDFPLRKTASEPNLKLRSRLKQKVAERRSSPLLRRKDGPVVTALKKRPLDVTDSACSSAPGSGPSSPNNSSGSVSAENGIAPAVPSIPAETSLAHRLVAREGSAAPLPLYTSPSLPNITLGLPATGPSAGTAGQQDAERLTLPALQQRLSLFPGTHLTPYLSTSPLERDGGAAHSPLLQHMVLLEQPPAQAPLVTGLGALPLHAQSLVGADRVSPSIHKLRQHRPLGRTQSAPLPQNAQALQHLVIQQQHQQFLEKHKQQFQQQQLQMNKIIPKPSEPARQPESHPEETEEELREHQALLDEPYLDRLPGQKEAHAQAGVQVKQEPIESDEEEAEPPREVEPGQRQPSEQELLFRQQALLLEQQRIHQLRNYQASMEAAGIPVSFGGHRPLSRAQSSPASATFPVSVQEPPTKPRFTTGLVYDTLMLKHQCTCGSSSSHPEHAGRIQSIWSRLQETGLRGKCECIRGRKATLEELQTVHSEAHTLLYGTNPLNRQKLDSKKLLGSLASVFVRLPCGGVGVDSDTIWNEVHSAGAARLAVGCVVELVFKVATGELKNGFAVVRPPGHHAEESTPMGFCYFNSVAVAAKLLQQRLSVSKILIVDWDVHHGNGTQQAFYSDPSVLYMSLHRYDDGNFFPGSGAPDEVGTGPGVGFNVNMAFTGGLDPPMGDAEYLAAFRTVVMPIASEFAPDVVLVSSGFDAVEGHPTPLGGYNLSARCFGYLTKQLMGLAGGRIVLALEGGHDLTAICDASEACVSALLGNELDPLPEKVLQQRPNANAVRSMEKVMEIHSKYWRCLQRTTSTAGRSLIEAQTCENEEAETVTAMASLSVGVKPAEKRPDEEPMEEEPPL
B2: recombinant GST-tagged HDAC4 (amino acid 627-1085) (domain or fragment, human, UniProt P56524 627-1084, looked up)
chain: LSRAQSSPASATFPVSVQEPPTKPRFTTGLVYDTLMLKHQCTCGSSSSHPEHAGRIQSIWSRLQETGLRGKCECIRGRKATLEELQTVHSEAHTLLYGTNPLNRQKLDSKKLLGSLASVFVRLPCGGVGVDSDTIWNEVHSAGAARLAVGCVVELVFKVATGELKNGFAVVRPPGHHAEESTPMGFCYFNSVAVAAKLLQQRLSVSKILIVDWDVHHGNGTQQAFYSDPSVLYMSLHRYDDGNFFPGSGAPDEVGTGPGVGFNVNMAFTGGLDPPMGDAEYLAAFRTVVMPIASEFAPDVVLVSSGFDAVEGHPTPLGGYNLSARCFGYLTKQLMGLAGGRIVLALEGGHDLTAICDASEACVSALLGNELDPLPEKVLQQRPNANAVRSMEKVMEIHSKYWRCLQRTTSTAGRSLIEAQTCENEEAETVTAMASLSVGVKPAEKRPDEEPMEEEPPL

How the values were obtained:
[1] = target: T1, recombinant full length flag-tagged N-CoR (amino-acid 1-2440) (human, UniProt O75376 1-2440); assay: SPR
[2] = target: T1, recombinant full length flag-tagged …; assay: co-IP

T1 sequence (O75376 whole entry): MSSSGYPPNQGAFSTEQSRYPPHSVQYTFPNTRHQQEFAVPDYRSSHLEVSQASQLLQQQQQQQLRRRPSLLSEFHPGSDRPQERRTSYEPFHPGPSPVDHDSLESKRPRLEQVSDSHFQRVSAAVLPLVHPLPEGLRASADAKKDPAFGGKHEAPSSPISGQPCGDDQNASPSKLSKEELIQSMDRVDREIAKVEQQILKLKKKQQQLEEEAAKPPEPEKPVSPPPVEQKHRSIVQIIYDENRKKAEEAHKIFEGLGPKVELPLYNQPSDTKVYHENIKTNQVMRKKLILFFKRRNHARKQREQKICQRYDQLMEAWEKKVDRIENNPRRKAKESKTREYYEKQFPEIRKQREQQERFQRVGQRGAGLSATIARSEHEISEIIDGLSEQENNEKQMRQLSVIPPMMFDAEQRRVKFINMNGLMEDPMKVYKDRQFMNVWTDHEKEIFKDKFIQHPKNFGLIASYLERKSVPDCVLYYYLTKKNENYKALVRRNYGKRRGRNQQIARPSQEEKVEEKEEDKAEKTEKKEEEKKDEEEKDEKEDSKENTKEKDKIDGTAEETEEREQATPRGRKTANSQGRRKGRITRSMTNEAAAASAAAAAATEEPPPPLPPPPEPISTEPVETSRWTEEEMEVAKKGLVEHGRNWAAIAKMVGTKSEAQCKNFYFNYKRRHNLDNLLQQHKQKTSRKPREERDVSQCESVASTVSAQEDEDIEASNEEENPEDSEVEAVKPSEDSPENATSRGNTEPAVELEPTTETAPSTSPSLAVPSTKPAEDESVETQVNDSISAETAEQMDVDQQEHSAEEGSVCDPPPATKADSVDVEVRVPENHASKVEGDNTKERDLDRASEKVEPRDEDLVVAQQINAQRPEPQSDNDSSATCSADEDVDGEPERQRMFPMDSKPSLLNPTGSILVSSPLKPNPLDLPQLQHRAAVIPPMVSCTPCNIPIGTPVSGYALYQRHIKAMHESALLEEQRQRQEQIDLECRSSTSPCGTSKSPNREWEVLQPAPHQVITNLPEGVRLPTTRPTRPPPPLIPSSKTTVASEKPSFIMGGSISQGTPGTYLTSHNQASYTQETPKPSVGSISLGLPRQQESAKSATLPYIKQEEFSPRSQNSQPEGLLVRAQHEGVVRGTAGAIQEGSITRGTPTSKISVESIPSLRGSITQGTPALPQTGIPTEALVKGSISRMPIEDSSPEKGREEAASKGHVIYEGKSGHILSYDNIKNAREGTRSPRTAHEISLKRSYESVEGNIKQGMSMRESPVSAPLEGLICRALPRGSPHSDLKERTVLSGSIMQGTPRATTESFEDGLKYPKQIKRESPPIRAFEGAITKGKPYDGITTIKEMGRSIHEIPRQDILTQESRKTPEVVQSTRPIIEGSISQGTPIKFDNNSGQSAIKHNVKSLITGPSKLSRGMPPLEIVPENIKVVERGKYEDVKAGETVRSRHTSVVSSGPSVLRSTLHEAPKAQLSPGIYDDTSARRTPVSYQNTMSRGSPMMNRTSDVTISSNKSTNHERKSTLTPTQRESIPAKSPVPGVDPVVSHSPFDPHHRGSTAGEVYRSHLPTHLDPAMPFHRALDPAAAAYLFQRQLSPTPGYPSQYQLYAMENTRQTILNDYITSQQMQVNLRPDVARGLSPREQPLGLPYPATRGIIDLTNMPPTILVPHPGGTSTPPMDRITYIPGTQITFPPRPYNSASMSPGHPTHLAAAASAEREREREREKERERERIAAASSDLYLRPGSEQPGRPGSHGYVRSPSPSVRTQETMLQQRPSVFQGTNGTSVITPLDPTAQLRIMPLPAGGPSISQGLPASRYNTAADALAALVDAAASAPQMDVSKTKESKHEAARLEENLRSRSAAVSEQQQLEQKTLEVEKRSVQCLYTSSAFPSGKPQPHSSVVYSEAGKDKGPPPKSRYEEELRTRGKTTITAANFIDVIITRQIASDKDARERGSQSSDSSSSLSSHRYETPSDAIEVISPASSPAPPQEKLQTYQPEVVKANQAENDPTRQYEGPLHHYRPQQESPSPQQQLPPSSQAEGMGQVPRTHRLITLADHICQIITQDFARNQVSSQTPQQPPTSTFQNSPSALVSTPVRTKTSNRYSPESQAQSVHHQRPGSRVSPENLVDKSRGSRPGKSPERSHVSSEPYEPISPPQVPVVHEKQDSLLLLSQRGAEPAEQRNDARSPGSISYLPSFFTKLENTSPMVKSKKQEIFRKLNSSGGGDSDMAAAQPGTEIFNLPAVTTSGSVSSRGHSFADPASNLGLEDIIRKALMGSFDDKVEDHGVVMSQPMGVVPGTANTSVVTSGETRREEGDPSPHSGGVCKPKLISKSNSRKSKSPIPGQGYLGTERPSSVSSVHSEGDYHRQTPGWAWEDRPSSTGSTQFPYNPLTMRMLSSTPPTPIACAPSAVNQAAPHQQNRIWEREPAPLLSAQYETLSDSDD

Row | Binder | Kd [1] [nM] | binding result [2]
1 | B1 | 1 | 
2 | B2 |  | binds
